In patent US20230218735A1 (Pfizer, published 2023):

Assays:
C. difficile toxin A = C. difficile toxin A (Clostridium difficile, UniProt P16154 1-2710); test: cell-based or functional assay
[1] = target: T1, genetically modified and chemically inactivated C. difficile toxoid A (Clostridium difficile, UniProt P16154 2-2710); test: ITC
T1 construct: also called TxdA; the toxoid

Binder	EC50 TcdA [RLU], toxin neutralization assay (TNA) on IMR90 cells (C. difficile toxin A) [RLU]	DH [1] [kcal/mol]	Kd [1] [nM]	Stoichiometry [1]
hCDIFA-32 (antibody, V domains shown) VH: QVQLQESGPGLVKPSETLSLTCTVSGGSISSHYWSWIRQTPGKGLEYIGNIYYTGRTKYNPSLKSRVTISADMSKNQVSLKLNSVTAADTAVYYCARGGPLMDVWGQGTTVTVSS VL: not shown	306	-12	21	0.21
hCDIFA-46 (antibody, V domains shown) VH: EVQLVESGGGLVQPGGSLRLSCAASGFTVSRNYMTWVRQAPGKGLEWVSVIYSGGSTYHADSVKGRFTISRDNSKNTLNLQMSSLRAEDTAVYYCARPCPGSSISCDYNMDVWGQGTTVTVSS VL: QAVVTQPASVSGSPGQSITISCTGTSSDVGGYNYVSWYQQHPGKAPKLIIYEVSNRPSGVSNRFSGSKSGNTASLTISGLQAEDEADYYCTSYTSSSMIDVFGTGTKLTVLG	1490	-11.3	3	1
hCDIFA-45 (antibody, V domains shown) VH: QVQLVQSGPEVRKPGTSVKFSCKASGFTFTSAAMQWVRQARGQRLEWIGWIVVDSGNTNYAQKFQERVTITRDMSTSTVYMELSSLRSEDTAMYYCAASRGIVGTRGLFDSWGQGTLVTVSS VL: EIVLTQSPSSLSSSVGDRVTITCRASQSIRNYLNWYQQKPGKAPKLLIYGASSLQSGVPPRFSGSGFGTDFTLTISNLQPEDFASYSCQQTYSTPLTFGGGTKLEIKR	1490	-17.6	0.3	0.98
hCDIFA-11 (antibody, V domains shown) VH: QVQLVQSATEMKKPGASVKVSCKASGYTFSDSYMHWVRQAPGQGLEWMGWINPDSGGTNYAQKFKGWVTMTRDTSINTVYMELRRLRSDDTAVYYCARDGGDYARHSLDYWGQGTLVTVSS VL: DVVMTQSPGTLSLSPGERVTLSCRASQSVNSDYLVWYQQKPGQAPRLLIYGASSRATGIPDRFSGSGSGPDFTLTISRLEPEDVAVYYCQLYGGLFTFGQGTRLEIKR	60	-17.9	4	0.97
hCDIFA-37 (antibody, V domains shown) VH: QVQLLESGPGLVKTSGTLSLTCSVSGDSVSTNNWWTWVRQPPGKGLEWIGEIYYNGNTIYNPSFKSRVTISVNRSKNHFSLKLNSVTAADRAVYYCARRTWNDVGPFDYWGQGILVTVSS VL: DIVMTQSPSSLSASIGDRVIITCRASQNINRYLNWYQQTAGKAPKLLIYGTSNLQSGVPSRFSGSGSGSGTDFTLTISSLQPEDFATYYCHQSYRTPQTFGQGTKLEIKR	37100	-7.9	7	0.95
hCDIFA-8 (antibody, V domains shown) VH: QVQLVESGGGLVKPGGSLRLSCAASGFTFSTSSMNWVRQAPGKGLEWVSSINTSGDYIYYTDSVKGRFTISRDNAKNSLYLQMNSLRAEDTAVYYCARDLGTWRDYWGQGTLVTVSS VL: QSVLTQPASVSGSPGQSITISCTGTSSDVGSYNLVSWYHQHPGKAPKLIIYEVSKRPSGVSNRFSGSKSGNTASLTISGLQAEDEADYYCYSYAGSSAFAWVFGTGTKLTVLG	35400	-6.9	20	2.02
hCDIFA-35 (antibody, V domains shown) VH: EVQLVQSGGGVVQPGRSLKLSCAASGFSFSSHGMHWVRQAPGKGLEWVALISYDGSYKYYEDSVKGRFTISRDNSKNTLYLQMNSLRAEDTAVYYCAKDWERYCSGMSCYLRNSLDYWGQGTLVTVSS VL: QSALTQPPSVSVAPGKTAGITCGGPNIGSKSVHWYQRKPGQAPVLVVYDDRYRPSGIPERFSGSNSGNTATLSISRVEAGDEADYYCQVWDSRSDHVVFGGGTKLTVLG	~52	-16.6	8	1.04
hCDIFA-59 (antibody, V domains shown) VH: QVQLVESGGGLVQPGRSLRLSCRTSGFTFGDFALSWVRQAPGKGLEWVGYIRSKTFGGTTEYAASVKGRFTMSRDDSKSIAYLQMNSLKTEDTAVYFCTRASYGAFDYWGQGTLVTVSS VL: DIVMTQSPSSLSASVGDTVTITCRAGQNIATYLHWYQQKPGKAPNLLIYDARTLQSGVPSRFSGSGSGTDFTLTINSLQPEDFATYYCQQSYNTPWTFGQGTKVEIKR	9	–	–	–
hCDIFA-5 (antibody, V domains shown) VH: EVQLVESGPGLVKPSETLSLTCAVSGGSISGYYWSWIRQPPGKGLEWIAYIYDSGSTSHNPSLKSRVTTSVDTSKNQFSLKLNSVTAADTAVYYCARSGKWALGAFDMWGQGTMVTVSS VL: QSALTQPPSVSGAPGQRVTISCTGSSSNIGAGYDVHWYQQLPGTAPKLLISGNNNRPSGVPDRFSGSKSGTSASLAITGLQAEDEADYYCQSYDNDLSGLVVFGGGTKLTVLG	1450	–	–	–
hCDIFA-7 (antibody, V domains shown) VH: QVQLRESGPGLVKPSETLSLTCTVSGGSVSNYYWSWIRQPPGKGLEWIGYIYSSGTINFNPSLKGRVTISGDTSKNQFSLKLSSVTAADTAVYYCARSGKWALGAFDIWGQGTMVTVSS VL: QSALTQPPSVSGAPGQRVTISCTGSSSNIGTGYDVHWYQQLPGKVPKLLIHGNGDRPSGVPDRFSASKSGTSASLAITGLQSEDEGDYYCQSYDNSLSGLVVFGGGTKLTVLG	13300	-13.5	118	2.94
hCDIFA-56 (antibody, V domains shown) VH: QVQLVQSGAEVKKPGASVKVSCKVSGYTLPELSMHWVRQAPGKGLEWMGGFDPEDDDTIYAQKFQGRVTMTEDTSTDTAYLELSSLRSEDTAVYYCATDSSPLYNENYFGSAAFDVWGQGTTVTVSS VL: AIRMTQSPSSLSASVGDRVTITCRASQGISTYLAWYQQKPGKAPKLLLYAASRLESGVPSRFSGSGSGTDYTLTINSLQPEDFATYYCQQYDRMPRTFGQGTKVEIKR	111000	-10.3	5	0.78
hCDIFA-6 (antibody, V domains shown) VH: QVQLQESGPGLVKPSQTLSLTCSVSGDSSSSGDYYWNWIRQPAGKGLEWIGYIYTSGSTNYNPSLKSRVTISEDTSKKQFSLKLTSVTAADTAVYYCARGIVGVGLDYWGQGTLVTVSS VL: EIVMTQSPSTLSASVGDRVTITCRASQTISSWLAWYQQKPGRAPKLLMSKTSTLQPGVPSRFSGSGSGTEFTLTISGLQPDDVATYYCHHYNSWPFGPGTKVEIKR	1420	–	–	–
hCDIFA-15 (antibody, V domains shown) VH: QVQLVQSGAEVKKPGASVKISCKASGYTFVRYYMHWVRQAPGQGLEWMGLIDPSGGSTRYAQRFQGRVTMTRDTSTSTVYMELSGLRSEDTAVYYCARDGPFGGLSGGNWFDPWGQGTLVTVSS VL: AIRMTQSPGTLSLSPGERATLSCRASQSLSFSYLAWYQQKPGQAPRLLIYGASSRATGIPDRFSGSGSGTDFALTISRLEPEDFAVYYCQQYGTSPLTFGGGTKVDIKR	~147	-2.7	38	1.68
hCDIFA-55 (antibody, V domains shown) VH: EVQLLESGAEVKKPGASVKVSCKASAYTFTTYGINWVRQAPGQGLEWMGWVSFSNGNTEYAQKFQGRVTMTTDTSTSTAFMELRSLRSDDTAVYYCASEKGELLSGCFDPWGQGTLVTVSS VL: QSVLTQPPSVSAAPGQKVTISCSGSSSNIGNSLVSWYQHLPGTAPKLLISDNNERPSGIPDRFSGSKSGTSATLGITGLQTGDEADYYCGTWDSSLSVVVFGGGTKLTVLG	942000	–	–	–
hCDIFA-1 (antibody, V domains shown) VH: QLQLQESGPGLVKPSETLSLICTVSGGSFSSSDFYWGWIRQPPGKGLEWIGNFYYNGSTSYNPSLKSRVTISVDTSKNQFSLKLRSVTAADTAVYYCARDYNFWNNSPNWFDPWGQGTLVTVSS VL: EIVMTQSPATLSVSPGERATLSCRASQSISSNLAWYQQKLGQAPRLLIHGASTRATGIPARFSGSGSGTQFTLTISSLQSEDFAVYFCQQYNNWPPTFGGGTKVDIKR	5760	-17.2	8	1.45
hCDIFA-24 (antibody, V domains shown) VH: QVQLVQSGGGVVQPGRSLRLSCAASGFSFSTHGMHWVRQAPGKGLEWVAVISYDGSNKYYADSVKGRFTISRDNSKNTVYLQMNSLRAEDTAVFYCAKPRDNYYYYGMDVWGQGTTVTVSS VL: AIRMTQSPSSLSASTGNRVTITCRASQGISSYLAWYQQKPGKAPNLLIYAASTLQSGVPSRFTGSGSGTDFTLTISRLHSENFATYYCQQYFNYPRTFGQGTRLEIKR	6300	-11.2	6	1.07
